Measurements published in PMC3229553.

Target: Orb (Drosophila (endogenous in ovaries))
Assay: co-IP; wild type ovary extract precipitated with Orb antibody coupled to protein A/G beads, room temperature 2 hours; Co-IP buffer 20 mM Hepes pH 7.5, 150 mM NaCl, 2.5 mM MgCl2, 250 mM sucrose, 0.05% NP40, 0.5% Triton-X, with RNase A; Western blot for Cup; HA antibody as negative control

B1: Cup (natural protein)
chain: MQMAEAEQENGAGALKIATNAGATDRPAHQQLPLPVEDQQDEVLTPAEKGKFEYPPPPPPPTPVQAPLATKATALNASQEHDDDEANSEKWEDPCAPPPPPPLPTSAFLATGLGYLKLPAFKLKDALEKAITKLEANKRTLKASPESSRSIKNKNVVALEMLPRRSNPETIGDGSMLASTSTAVMLQTKKPAVIVEMERRCKIINLLAKQNQILESISGEAIPMHGPSKHLHEDEGLTLQVLSARASTPYTQPSSMLSCTAVSCDLEHDSPRKQVASKEAVPEQQSSQVQQKRPPSTGIHKPGSLRAPKAVRPTTAPVVSSKPVKSYTRSRLMDIRNGMFNALMHRSKESFVMPRIATCDDIELEGRLRRMNIWRTSDGTRFRTRSTTANLNMNNNNNNECMPAFFKNKNKPNLISDESIIQSQPPQPQTEFQDPAIVNQRRIGSGRLNHSKWGYNDEDYHSYHNGKSQHMEEVNSKNSKNMTVLQFFDNGEISSQPQRRPNTPVMGMSINRSENDTLHSNESSEDLSRANENYVKRVMSGFLVVSKPKSRDVEDRHHRRYRNQNEEPEWFSCGPTSRLDTIELCGFDEDEEKMLKEGNKNHGLGETERETSKQKMDHKYKWTHAEPMGRSKYMPKHDTNNNHNVENMNNVMATEHQQQKEEKRPGSGRSFQFDKFNQSQQNYESSSYVNHQQPPQTQPQQMQQQSNTNTNNSKFMSFFANEGNSSSSSLNEFFKQAINQGHGNNPEQPKSLGHIGQMPSVDQLEAKWRRNSLNNVGETANKQTDNFQKLIGSLSSAKPQSQAVGYDAISNFIMQQQQYQQQQQKQHLIIQQQQQHTAFLASLQLKAILGRADTQLLLLRLTKGEISKHGLLVQLANPRLTDMDREAITAVLQFTNTQQQQQQHKQQLDMLSSTVIASQLQNLHNLAIVQQTLAARQQPQHNPQTQAPHQLSQEDLQAHANVIMRNAVMKRKIEEQTSKLINGGAKHQAQQQYLNRGQQRQARPDANSNALLHALISGGGNNHASGYPMNGQPQKHHSNLRFGDNQNFQSFESNQPHFATQYKQQYQQSQQQHPHQQPQQLNSLHQNNAGAVNSFNKAQMQAQSAISMLPNSGDEFH
- percent of Cup pulled down: 10%
